Assay results as given in patent US9492315B2, “Implantable therapeutic device” (ForSight Vision4, Inc., priority 2010, dated 2016).
Read-outs that look alike come from different tables or passages of the source.

How the values were obtained:
[1] = humans (Lucentis package insert); cited from earlier work
[2] = tested on: retinal thickness / lesion size in wet AMD; assay: Low dose Lucentis MIC study in wet AMD patients with OCT imaging (Example 18); format: in vivo, human
From the text: OCT (Optical Coherence Tomography) imaging was used to assess the condition of the region of the macula at the back surface of the treated eye. The OCT technique relies on the measurement of certain properties of light (e.g. echo time, intensity of reflection) that has been directed at the area of study and can measure very small amounts of reflected light. Because these cellular features are essentially transparent it is possible to use OCT methodology to generate three dimensional representations of the area.
The regions of interest were analyzed with a two dimensional representation of the cross section of the retinal wall at one longitudinal scan location of the OCT image. In these “OCT scan” images is it possible to interrogate very local areas of interest more specifically. The OCT scans were carefully selected to directly compare the thickness and anatomical structure of specific sites within a lesion, pre and post treatment, for the purpose of assessing the effect of injected drug including a reduction in sub-retinal fluid.
The OCT images were measured the day after injection and at 2-3 days post injection.
Further studies can be conducted by one or ordinary skill in the based on the teachings described herein to determine empirically the MIC for a sustained release device and cumulative effect of the drug over the time of release.

[3] = Determined concentration profiles of Lucentis/ranibizumab in the vitreous humor for injections into the device or bolus (FIGS. 19B-19T, 32A-32E, 37); design: species or system human; conditions: parameter used for FIGS. 19K to 19P, half-life 9 days
From the text: The therapeutic device 100 can be tuned to deliver a target therapeutic concentration profile based on the volume of formulation injected into the device. The injected volume may comprise a substantially fixed volume, for example within about +/−30% of an intended predetermined target volume. The volume of the reservoir can be sized with the release rate index so as to release the therapeutic agent for an extended time substantially greater than the treatment time of a corresponding bolus injection. The device can also be tuned to release the therapeutic agent based on the half life of the therapeutic agent in the eye. The device volume and release rate index comprise parameters that can be tuned together based on the volume of formulation injected and the half life of the therapeutic agent in the eye. The following equations can be used to determine therapeutic device parameters suitable for tuning the device. Rate=Vr(dCr/dt)=−D(PA/TL)Cr where Rate=Rate of release of therapeutic agent from device Cr=concentration of therapeutic agent in reservoir Vr=volume of reservoir D=Diffusion constant PA/TL=RRI P=porosity A=area T=tortuosity=F=channel parameter. […]
These concentration profiles were determined with modeling and calculations as described herein. […]

[4] = rabbit and monkey (Gaudreault et al.), cited from earlier work
[5] = Calculations of Lucentis concentrations in the vitreous, monkey model (bolus injections and device Simulations 1-5); conditions: parameter applied in Simulations 1-5 (column = simulation)
From the text: A model can be derived to describe the release rate as a function of time by relating the change of concentration in the reservoir to the release rate described above. This model assumes a solution of therapeutic agent where the concentration in the reservoir is uniform. In addition, the concentration in the receiving fluid or vitreous is considered negligible (cV=0). Solving the differential equation and rearrangement yields the following equations describing the concentration in the reservoir as a function of time, t, and volume of the reservoir, VR, for release of a therapeutic agent from a solution in a reservoir though a porous structure. cR=cR0exp((−DPA/FLVR)t) and Cumulative Release=1−cR/cR0
A bolus injection into the vitreous may be modeled as a single exponential with rate constant, k=0.693/half-life and a cmax=dose/Vv where Vv is the vitreous volume. […] The vitreous volume is approximately 1.5 mL for the rabbit and monkey and 4.5 mL for the human eye. […] This concentration decays to a vitreous concentration of 0.1 ug/mL after about a month.
For devices with extended release, the concentration in the vitreous changes slowly with time. […]
The first column used the measured Cmax (Gaudreault et al.) while the second used a calculated Cmax based on the dose and volume of the vitreous.

[6] = tested on: Grade IV choroidal neovascularization (CNV) lesions; conditions: intravitreal injection, all doses tested, cynomolgus monkeys, laser photocoagulation model; cited from earlier work

MIC for a sustained release device ([2]; human patients, wet AMD): ≤ 1 ug per ml
Substance: ranibizumab [Lucentis]
half-life in the vitreous [1]: ~220 h | Treatment Effect Observed? ([2]; decrease in size of the lesion on OCT after low dose bolus, patient # in r2, dose in r4): Yes | Rate constant, k [3]: 0.077 day⁻¹ | half-life in the vitreous [4]: two to four | half-life in the vitreous ([4]; listed as ranibizumab): approximately 3 days | Rate constant, k [5]: 0.264 day⁻¹ | development of Grade IV CNV lesions [6]: completely inhibited
